Data reported in patent publication US20230220034A1, “METHOD FOR IMPROVING SOLUBILITY OF PROTEIN AND PEPTIDE BY USING IMMUNOGLOGULIN FC FRAGMENT LINKAGE” (HANMI PHARM. CO., LTD., priority 2014, published 2023).
Where two headings read alike, the source gives them in different places. Square brackets hold non-standard residues; d marks the D form. Ends that are not written are not given here. Aib = CC(C)(N)C(=O)O

How the values were obtained:
[1] = Test of solubility of insulin and long-acting insulin conjugate (RP-HPLC against calibration standard curve); assay type: physicochemical; conditions: for Measurement value (quantitative value calculated by standard calibration curve): pH 6.0 acetic acid buffer, polysorbate, mannitol, sodium chloride, room temperature, supernatant
Text: A respective calibration standard curve of insulin and the long-acting insulin conjugate was first confirmed by Reverse Phase-High Performance Liquid Chromatography (RP-HPLC), as in FIG. 1.

[2] = pH 5.6

## Insulin
[1]; FIG. 2, composition of Table 1, pH 6.0
  solubility: 628 µg/mL
[1]; dissolved in long-acting insulin conjugate formulation buffer, pH 6.0
  difference between the theoretical value and the measurement value: up to 16 times
[1]; long-acting insulin conjugate formulation buffer, all cases, excluding 0.008 mg/mL
  pellets after centrifugation: pellets were observed
[1]; serial dilution of test material from about 10 mg/mL, pH 6.0
  point at which completely dissolved without impurities or pellet (minimum quantitative value): 0.008 mg/mL
[1]; theoretical quantitative value 0.008 mg/mL
  Measurement value (quantitative value calculated by standard calibration curve): 0.000 mg/mL
[1]; theoretical quantitative value 0.04 mg/mL
  Measurement value (quantitative value calculated by standard calibration curve): 0.000 mg/mL
[1]; theoretical quantitative value 0.2 mg/mL
  Measurement value (quantitative value calculated by standard calibration curve): 0.005 mg/mL
[1]; theoretical quantitative value 1 mg/mL
  Measurement value (quantitative value calculated by standard calibration curve): 0.047 mg/mL
[1]; theoretical quantitative value 5 mg/mL
  Measurement value (quantitative value calculated by standard calibration curve): 0.253 mg/mL
[1]; theoretical quantitative value 10 mg/mL
  Measurement value (quantitative value calculated by standard calibration curve): 0.628 mg/mL

## Oxyntomodulin derivative: oxyntomodulin derivative having the amino acid sequence of SEQ ID NO: 27, cysteine residue at position 30 (H[Aib]QGTFTSDYSKYLDEKRAKEFVQWLMNTC)
[2]
  difference between the theoretical value and the measurement value: up to 27 times
  solubility: 188 µg/mL
[2]; serial dilution of test material from about 5 mg/mL
  point at which completely dissolved without impurities or pellet (minimum quantitative value): 0.008 mg/mL
